From patent publication US20240400613A1 (SUN PHARMACEUTICAL INDUSTRIES, published 2024)
Starred links: 1 amine or outer side, 2 acyl side, 3 side chain; linkers in the order of their positions; H or OH if unused. Non-standard residues stand in square brackets, D forms with d. Groups on a side chain read outwards from the residue. No end group written: not given here. *: point of attachment. C20 diacid = O=C(O)CCCCCCCCCCCCCCCCCCC(=O)*; γGlu = O=C(O)[C@H](CCC(=O)[*:2])N[*:1]; Nle = CCCC[C@H](N)C(=O)O; Nva = CCC[C@H](N)C(=O)O; AEEA = NCCOCCOCC(=O)O; Aib = CC(C)(N)C(=O)O

B1: Compound 3 (peptide)
peptide: Y[Aib]EGTFTSDYSILLDKIAQK([AEEA-Aib-γGlu-C20 diacid])AFVQWLIAGGPSSGAPPPS-NH2
modifications: N-terminus assumed
SMILES: CC[C@H](C)[C@H](NC(=O)[C@H](CCCCN)NC(=O)[C@H](CC(=O)O)NC(=O)[C@H](CC(C)C)NC(=O)[C@H](CC(C)C)NC(=O)[C@@H](NC(=O)[C@H](CO)NC(=O)[C@H](Cc1ccc(O)cc1)NC(=O)[C@H](CC(=O)O)NC(=O)[C@H](CO)NC(=O)[C@@H](NC(=O)[C@H](Cc1ccccc1)NC(=O)[C@@H](NC(=O)CNC(=O)[C@H](CCC(=O)O)NC(=O)C(C)(C)NC(=O)[C@@H](N)Cc1ccc(O)cc1)[C@@H](C)O)[C@@H](C)O)[C@@H](C)CC)C(=O)N[C@@H](C)C(=O)N[C@@H](CCC(N)=O)C(=O)N[C@@H](CCCCNC(=O)COCCOCCNC(=O)C(C)(C)NC(=O)CC[C@H](NC(=O)CCCCCCCCCCCCCCCCCCC(=O)O)C(=O)O)C(=O)N[C@@H](C)C(=O)N[C@@H](Cc1ccccc1)C(=O)N[C@H](C(=O)N[C@@H](CCC(N)=O)C(=O)N[C@@H](Cc1c[nH]c2ccccc12)C(=O)N[C@@H](CC(C)C)C(=O)N[C@H](C(=O)N[C@@H](C)C(=O)NCC(=O)NCC(=O)N1CCC[C@H]1C(=O)N[C@@H](CO)C(=O)N[C@@H](CO)C(=O)NCC(=O)N[C@@H](C)C(=O)N1CCC[C@H]1C(=O)N1CCC[C@H]1C(=O)N1CCC[C@H]1C(=O)N[C@@H](CO)C(N)=O)[C@@H](C)CC)C(C)C
B2: Compound 6 (peptide)
peptide: Y[Aib]EGTFTSDYSI[Nva]LDKIAQK([AEEA-AEEA-γGlu-C20 diacid])AFVQWLIAGGPSSGAPPPS-NH2
modifications: N-terminus assumed
SMILES: CCC[C@H](NC(=O)[C@@H](NC(=O)[C@H](CO)NC(=O)[C@H](Cc1ccc(O)cc1)NC(=O)[C@H](CC(=O)O)NC(=O)[C@H](CO)NC(=O)[C@@H](NC(=O)[C@H](Cc1ccccc1)NC(=O)[C@@H](NC(=O)CNC(=O)[C@H](CCC(=O)O)NC(=O)C(C)(C)NC(=O)[C@@H](N)Cc1ccc(O)cc1)[C@@H](C)O)[C@@H](C)O)[C@@H](C)CC)C(=O)N[C@@H](CC(C)C)C(=O)N[C@@H](CC(=O)O)C(=O)N[C@@H](CCCCN)C(=O)N[C@H](C(=O)N[C@@H](C)C(=O)N[C@@H](CCC(N)=O)C(=O)N[C@@H](CCCCNC(=O)COCCOCCNC(=O)COCCOCCNC(=O)CC[C@H](NC(=O)CCCCCCCCCCCCCCCCCCC(=O)O)C(=O)O)C(=O)N[C@@H](C)C(=O)N[C@@H](Cc1ccccc1)C(=O)N[C@H](C(=O)N[C@@H](CCC(N)=O)C(=O)N[C@@H](Cc1c[nH]c2ccccc12)C(=O)N[C@@H](CC(C)C)C(=O)N[C@H](C(=O)N[C@@H](C)C(=O)NCC(=O)NCC(=O)N1CCC[C@H]1C(=O)N[C@@H](CO)C(=O)N[C@@H](CO)C(=O)NCC(=O)N[C@@H](C)C(=O)N1CCC[C@H]1C(=O)N1CCC[C@H]1C(=O)N1CCC[C@H]1C(=O)N[C@@H](CO)C(N)=O)[C@@H](C)CC)C(C)C)[C@@H](C)CC
B3: Compound 10 (peptide)
peptide: YXEGTFTSDYSIXLDKIAQKAFVQWLIAGGPSSGAPPPS
modifications: Aib at position 2; L-homoalanine (2-aminobutyric acid) at position 13; Lys 20 side chain (epsilon amino) acylated with Moiety A; C-terminal amide (Ser-NH2)
B4: Compound 11 (peptide)
peptide: Y[Aib]EGTFTSDYSI[Nle]LDKIAQK([AEEA-Aib-γGlu-C20 diacid])AFVQWLIAGGPSSGAPPPS-NH2
modifications: N-terminus assumed
SMILES: CCCC[C@H](NC(=O)[C@@H](NC(=O)[C@H](CO)NC(=O)[C@H](Cc1ccc(O)cc1)NC(=O)[C@H](CC(=O)O)NC(=O)[C@H](CO)NC(=O)[C@@H](NC(=O)[C@H](Cc1ccccc1)NC(=O)[C@@H](NC(=O)CNC(=O)[C@H](CCC(=O)O)NC(=O)C(C)(C)NC(=O)[C@@H](N)Cc1ccc(O)cc1)[C@@H](C)O)[C@@H](C)O)[C@@H](C)CC)C(=O)N[C@@H](CC(C)C)C(=O)N[C@@H](CC(=O)O)C(=O)N[C@@H](CCCCN)C(=O)N[C@H](C(=O)N[C@@H](C)C(=O)N[C@@H](CCC(N)=O)C(=O)N[C@@H](CCCCNC(=O)COCCOCCNC(=O)C(C)(C)NC(=O)CC[C@H](NC(=O)CCCCCCCCCCCCCCCCCCC(=O)O)C(=O)O)C(=O)N[C@@H](C)C(=O)N[C@@H](Cc1ccccc1)C(=O)N[C@H](C(=O)N[C@@H](CCC(N)=O)C(=O)N[C@@H](Cc1c[nH]c2ccccc12)C(=O)N[C@@H](CC(C)C)C(=O)N[C@H](C(=O)N[C@@H](C)C(=O)NCC(=O)NCC(=O)N1CCC[C@H]1C(=O)N[C@@H](CO)C(=O)N[C@@H](CO)C(=O)NCC(=O)N[C@@H](C)C(=O)N1CCC[C@H]1C(=O)N1CCC[C@H]1C(=O)N1CCC[C@H]1C(=O)N[C@@H](CO)C(N)=O)[C@@H](C)CC)C(C)C)[C@@H](C)CC
B5: Compound 1 (peptide)
peptide: Y[Aib]EGTFTSDYSI[Nva]LDKIAQK([AEEA-Aib-γGlu-C20 diacid])AFVQWLIAGGPSSGAPPPS-NH2
modifications: N-terminus assumed
SMILES: CCC[C@H](NC(=O)[C@@H](NC(=O)[C@H](CO)NC(=O)[C@H](Cc1ccc(O)cc1)NC(=O)[C@H](CC(=O)O)NC(=O)[C@H](CO)NC(=O)[C@@H](NC(=O)[C@H](Cc1ccccc1)NC(=O)[C@@H](NC(=O)CNC(=O)[C@H](CCC(=O)O)NC(=O)C(C)(C)NC(=O)[C@@H](N)Cc1ccc(O)cc1)[C@@H](C)O)[C@@H](C)O)[C@@H](C)CC)C(=O)N[C@@H](CC(C)C)C(=O)N[C@@H](CC(=O)O)C(=O)N[C@@H](CCCCN)C(=O)N[C@H](C(=O)N[C@@H](C)C(=O)N[C@@H](CCC(N)=O)C(=O)N[C@@H](CCCCNC(=O)COCCOCCNC(=O)C(C)(C)NC(=O)CC[C@H](NC(=O)CCCCCCCCCCCCCCCCCCC(=O)O)C(=O)O)C(=O)N[C@@H](C)C(=O)N[C@@H](Cc1ccccc1)C(=O)N[C@H](C(=O)N[C@@H](CCC(N)=O)C(=O)N[C@@H](Cc1c[nH]c2ccccc12)C(=O)N[C@@H](CC(C)C)C(=O)N[C@H](C(=O)N[C@@H](C)C(=O)NCC(=O)NCC(=O)N1CCC[C@H]1C(=O)N[C@@H](CO)C(=O)N[C@@H](CO)C(=O)NCC(=O)N[C@@H](C)C(=O)N1CCC[C@H]1C(=O)N1CCC[C@H]1C(=O)N1CCC[C@H]1C(=O)N[C@@H](CO)C(N)=O)[C@@H](C)CC)C(C)C)[C@@H](C)CC

Columns and labels:
GIPR = target: T1, GIPR (UniProt P48546 22-466, limits assumed); assay: cell-based or functional assay
T1 sequence (looked up): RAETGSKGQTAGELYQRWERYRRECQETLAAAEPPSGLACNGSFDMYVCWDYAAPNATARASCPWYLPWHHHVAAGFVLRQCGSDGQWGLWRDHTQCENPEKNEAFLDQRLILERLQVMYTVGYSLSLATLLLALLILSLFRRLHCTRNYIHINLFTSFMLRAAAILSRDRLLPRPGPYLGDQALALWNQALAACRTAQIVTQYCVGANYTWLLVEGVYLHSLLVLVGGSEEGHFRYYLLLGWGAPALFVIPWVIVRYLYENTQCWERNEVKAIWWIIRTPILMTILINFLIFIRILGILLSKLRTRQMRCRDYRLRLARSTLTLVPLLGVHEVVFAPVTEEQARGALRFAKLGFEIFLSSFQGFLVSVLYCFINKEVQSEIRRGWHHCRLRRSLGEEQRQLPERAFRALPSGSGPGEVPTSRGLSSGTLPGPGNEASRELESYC

GLP-1R = GLP-1R (UniProt P43220 24-463, limits assumed); assay: cell-based or functional assay

Molecule | Half effective Concentration (EC50), cellular cAMP assay on GIPR-expressing cells (GIPR) | Half effective Concentration (EC50), cellular cAMP assay on GLP-1R-expressing cells (GLP-1R)
Tirzepatide (peptide) | 1900 pM | 6800 pM
B1 | 12.8 pM | 32.7 pM
B2 | 17.7 pM | 19.6 pM
B3 | 7.3 pM | 3.6 pM
B4 | 6.4 pM | 5.9 pM
B5 | 27.6 pM | 12.4 pM
